The source of these data is publication PMC8301065.

In experiment [1] the target is human cardiac muscle wild-type α-actin (recombinant) (human) (UniProt P68032).
Experiment [2] addresses human cardiac α-actin mutant p.R312H (human).
The target of experiment [3] is human cardiac α-actin mutant p.E361G (human).
For experiment [4], the target named is human cardiac α-actin mutant p.A295S (human).
Experiment [5] deals with human cardiac muscle wild-type α-actin (recombinant) (human) (UniProt P68032). In words: pyrene-actin polymerization assay; 5 µM c-actin with pyrene-labeled skeletal muscle actin added at 20:1, G-buffer; polymerization induced by 2 mM MgCl2 and 0.1 M KCl; rise of pyrene fluorescence; control without nucleator.

Sequence of FH2-domain of the formin mDia3 (O70566 625-1025): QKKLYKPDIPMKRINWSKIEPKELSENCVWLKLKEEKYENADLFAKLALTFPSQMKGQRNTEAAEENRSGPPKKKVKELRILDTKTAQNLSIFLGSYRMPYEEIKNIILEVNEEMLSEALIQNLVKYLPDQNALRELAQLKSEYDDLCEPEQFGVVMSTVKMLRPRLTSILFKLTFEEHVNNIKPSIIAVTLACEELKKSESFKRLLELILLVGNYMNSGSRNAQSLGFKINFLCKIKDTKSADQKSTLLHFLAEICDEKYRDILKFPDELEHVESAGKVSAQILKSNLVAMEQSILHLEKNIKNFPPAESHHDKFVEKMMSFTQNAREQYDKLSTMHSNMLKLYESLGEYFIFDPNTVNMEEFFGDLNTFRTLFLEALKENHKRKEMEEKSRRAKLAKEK

As for “FH2-domain of the formin mDia3 (from UniProt O70566 625-1025) (domain or fragment)”, in experiment [1], the half time of polymerization (t1/2) of 5 µM c-actin with 50 nM mDia3-FH2, pyrene-actin assay (control without nucleator 8.6 min) is 6.9 min. Moreover, in experiment [2], the half time of polymerization (t1/2) of 5 µM c-actin with 50 nM mDia3-FH2, pyrene-actin assay (control without nucleator 13.8 min) is 4.1 min. In experiment [3], this substance came in with a half time of polymerization (t1/2) of 5 µM c-actin with 50 nM mDia3-FH2, pyrene-actin assay (control without nucleator 4.0 min) of 2.9 min. The half time of polymerization (t1/2) of 5 µM c-actin with 50 nM mDia3-FH2, pyrene-actin assay (control without nucleator 12.2 min) in experiment [4] came to 3.5 min.
In the case of “Arp2/3 complex isolated from Acanthameba castellani”, in experiment [1], the half time of polymerization (t1/2) of 5 µM c-actin with 50 nM Arp2/3 complex, pyrene-actin assay (control without nucleator 8.6 min) amounted to 2.1 min. This substance yielded a half time of polymerization (t1/2) of 5 µM c-actin with 50 nM Arp2/3 complex, pyrene-actin assay (control without nucleator 13.8 min) in experiment [2] of 1 min. This substance also had a half time of polymerization (t1/2) of 5 µM c-actin with 50 nM Arp2/3 complex, pyrene-actin assay (control without nucleator 4.0 min) in experiment [3] of 1.8 min. The half time of polymerization (t1/2) of 5 µM c-actin with 50 nM Arp2/3 complex, pyrene-actin assay (control without nucleator 12.2 min) in experiment [4] is 1.2 min.
As to “human cardiac muscle wild-type α-actin (recombinant) (from UniProt P68032 1-377) (natural protein)”, the half time of polymerization (t1/2) in experiment [5] came out at 8.6 min.
